Laboratory results as given in patent publication EP1073891B1, “METHOD OF PREDICTING RECEPTOR MODULATING ACTIVITY” (Duke University, priority 1998, dated 1999).

Tests used:
ERα = target: T1, ERα (Homo sapiens, UniProt P03372); experiment: Phage ELISA / fingerprint on ER immobilized on biotinylated ERE (Examples 2.3-2.5); format: binding; design: purchased PanVera Corporation, Madison, WI; conditions: for binding to ERα in the in vitro phage display system: presence or absence of estradiol / 4-OH-tamoxifen
T1 sequence (P03372 1-595): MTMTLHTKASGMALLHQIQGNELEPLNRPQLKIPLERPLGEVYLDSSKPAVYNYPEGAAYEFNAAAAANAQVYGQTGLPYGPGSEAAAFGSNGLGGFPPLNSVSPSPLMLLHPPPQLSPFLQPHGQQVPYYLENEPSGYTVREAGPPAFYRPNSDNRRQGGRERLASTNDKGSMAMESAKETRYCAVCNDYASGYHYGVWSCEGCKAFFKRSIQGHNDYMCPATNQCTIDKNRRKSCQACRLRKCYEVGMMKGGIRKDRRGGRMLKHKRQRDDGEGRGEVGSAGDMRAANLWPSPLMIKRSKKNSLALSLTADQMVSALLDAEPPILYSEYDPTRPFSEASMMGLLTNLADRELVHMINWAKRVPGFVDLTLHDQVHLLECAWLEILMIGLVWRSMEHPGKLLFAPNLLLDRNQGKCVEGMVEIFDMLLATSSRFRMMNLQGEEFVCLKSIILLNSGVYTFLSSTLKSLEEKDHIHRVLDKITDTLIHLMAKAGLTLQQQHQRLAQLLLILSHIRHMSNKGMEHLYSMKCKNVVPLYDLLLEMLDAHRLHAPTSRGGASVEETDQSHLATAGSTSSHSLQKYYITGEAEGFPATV

ER = target: T2, ER (Homo sapiens, UniProt P03372); experiment: Disruption of tamoxifen activated ER transcription on several promoters (1x-ERE-Luc, 3X-ERE-Luc, TK-ERE-Luc, C3-Luc) (Example 4.5); format: cell-based; conditions: tamoxifen (10nM), TK-ERE-Luc and C3-Luc
T2 construct: expressed in transfected cells; host or cells: HepG2
T2 sequence (P03372 1-595): T1 sequence (P03372 1-595)

Row | Sequence | binding of the probe to ER α (ERα; in the presence of modulators) | binding to ERα in the in vitro phage display system (ERα) | block of tamoxifen activated transcription on distinct promoters (ER)
1 | SSLTSRDFGSWYASR [α II] | binds to ER α in the presence of any compound that binds to the estrogen receptor | bind in the presence of estradiol and 4-OH-tamoxifen, but not in their absence | blocks tamoxifen partial agonist activity from all promoters tested
2 | SSWDMHQFFWEGVSR [α/β III] | – | binds to ERα only in the presence of 4-OH-tamoxifen | –
